Test results published in US20170081400A1 (CEPHALON, published 2017).

T1: human TL1A extracellular domain with N-terminal HIS and FLAG tag (human, UniProt O95150 72-251)
T1 construct: whole entry named. ~70 kDa fraction purified by gel filtration
T1 sequence: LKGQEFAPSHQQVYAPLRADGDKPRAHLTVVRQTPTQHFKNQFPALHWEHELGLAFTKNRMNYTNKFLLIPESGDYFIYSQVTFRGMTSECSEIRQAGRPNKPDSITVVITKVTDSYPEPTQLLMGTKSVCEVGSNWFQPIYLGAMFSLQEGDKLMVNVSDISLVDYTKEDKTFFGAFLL

T2: human TL1A extracellular domain with N-terminal HIS and FLAG tag (human) (UniProt O95150)
T2 sequence: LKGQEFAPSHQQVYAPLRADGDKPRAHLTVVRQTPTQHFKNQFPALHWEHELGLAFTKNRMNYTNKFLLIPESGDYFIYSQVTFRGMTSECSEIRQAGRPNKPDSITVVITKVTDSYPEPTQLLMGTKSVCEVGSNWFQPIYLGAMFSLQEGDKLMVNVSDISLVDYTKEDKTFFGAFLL

T3: human TL1A extracellular domain with N-terminal HIS and FLAG tag (human, UniProt O95150 72-251)
T3 construct: the whole entry is named; also called TNFSF15
T3 sequence: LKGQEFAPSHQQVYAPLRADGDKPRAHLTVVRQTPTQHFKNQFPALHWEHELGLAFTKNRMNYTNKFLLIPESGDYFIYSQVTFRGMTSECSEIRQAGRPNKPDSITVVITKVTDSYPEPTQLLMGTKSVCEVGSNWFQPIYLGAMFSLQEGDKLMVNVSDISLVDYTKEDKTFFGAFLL


Experiments:
[1] = biological target: T1, human TL1A extracellular domain with …; experiment: SPR run 3; supernatant on Protein A; TL1A 10 ug/mL; timepoint 59
Description: (§1) 1.5. Antibody expression and antigen binding as determined by SPR. Using a CM5 sensor chip (GE Healthcare) Protein A (Pierce) was coupled to the chip surface using an amine coupling kit (GE Healthcare). Protein A was coupled on flow cell 1 and 2 (or alternatively 3 and 4) using a BIACORE® T200. […] The amount of supernatant or purified protein (as well as the concentration) injected during the capture stage varied between runs and is specified in the header of the Tables 3-11. At the end of injection of the supernatant or purified antibody the change in response units was measured. This value was reported as Capture Level in Tables 3-11. […] The response units were measured prior to the end of the dissociation phase. […] The sensorgrams were double referenced (flow cell 2 is subtracted from flow cell 1 and a buffer blank). As there were a large number of antibody variants to screen, these were screened across different runs (Tables 3-11). […] A summary of the conditions used in each run is below:
(§2) 2.1. […] In some experiment the antibodies were purified using Protein A chromatography (See 1.4) and purified antibodies were used in BIACORE® (GE Healthcare) experiments.

[2] = biological target: T2, human TL1A extracellular domain with N-terminal HIS and FLAG tag (human); experiment: cell-based or functional assay
[3] = biological target: T1, human TL1A extracellular domain with …; experiment: SPR run 3; supernatant on Protein A; TL1A 10 ug/mL; timepoint 590
Description: as §1, §2

[4] = biological target: T3, human TL1A extracellular domain with …; experiment: SPR Run 9, antibody on Protein A, TL1A 5 ug/mL, timepoint 590
Description: as §1, §2

[5] = biological target: T3, human TL1A extracellular domain with …; experiment: SPR Run 9, antibody on Protein A, TL1A 5 ug/mL, timepoint 44
Description: as §1, §2

| Binder | TL1A Binding Level (Early) [1] [RU] | Antibody IC50, TL1A induced caspase potency assay in TF-1 cells [2] [ng/mL] | Fold improvement over 320-179, TL1A induced caspase potency assay in TF-1 cells [2] [fold] | TL1A Binding Level (Late) [3] [RU] | TL1A Binding Level (Late) [4] [RU] | TL1A Binding Level (Early) [5] [RU] |
| --- | --- | --- | --- | --- | --- | --- |
| 320-263 (antibody, human IgG1, name in Kabat numbering, V domains shown, human IgG1, lambda) VH: QVQLVQSGAEVKKPGASVKVSCKASGYTFTSYDINWVRQAPGQGLEWMGWLNPNSGNTGYAQKFQGRVTMTADRSTSTAYMELSSLRSEDTAVYYCAREVPETAAFEYWGQGTLVTVSS VL: QSVLTQPPSVSGAPGQRVTISCTSSSSDIGKGLGVHWYQQLPGTAPKLLIEGYYNRPSGVPDRFSGSKSGTSASLTITGLLPEDEGDYYCQSYDGTLSALFGGGTKLTVLG | 121 | 3 | 3 | 123 | – | – |
| 320-267 (antibody, human IgG1, V domains shown, human IgG1, lambda) VH: QVQLVQSGAEVKKPGASVKVSCKASGYTFTSYDINWVRQAPGQGLEWMGWLNPNSGNTGYAQKFQGRVTMTADRSTSTAYMELSSLRSEDTAVYYCAREVPETAAFEYWGQGTLVTVSS VL: QSVLTQPPSVSGAPGQRVTISCTSSSSDIGAALGVHWYQQLPGTAPKLLIEGYYNRPSGVPDRFSGSKSGTSASLTITGLLPEDEGDYYCQSYDGTLSALFGGGTKLTVLG | 299 | – | – | 297 | – | – |
| 320-597 (antibody, human IgG1, name in Kabat numbering, V domains shown, full-length human IgG1, lambda) VH: QVQLVQSGAEVKKPGASVKVSCKASGYTFTSYDINWVRQAPGQGLEWMGWLNPNSGNTGYAQKFQGRVTMTADRSTSTAYMELSSLRSEDTAVYYCAREVPETAAFEYWGQGTLVTVSS VL: QSVLTQPPSVSGAPGQRVTISCTSSSSDIGAGQGVHWYQQLPGTAPKLLIEGYYNRPSGVPDRFSGSKSGTSASLTITGLLPEDEGDYYCQSFDGTLSALFGGGTKLTVLG | – | – | – | – | 105 | 115 |
| 320-596 (antibody, human IgG1, name in Kabat numbering, V domains shown, full-length human IgG1, lambda) VH: QVQLVQSGAEVKKPGASVKVSCKASGYTFTSYDINWVRQAPGQGLEWMGWLNPNSGNTGYAQKFQGRVTMTADRSTSTAYMELSSLRSEDTAVYYCAREVPETAAFEYWGQGTLVTVSS VL: QSVLTQPPSVSGAPGQRVTISCTSSSSDIGAGLGVHWYQQLPGTAPKLLIEGYYNRPSGVPDRFSGSKSGTSASLTITGLLPEDEGDYYCQSFDGTLSALFGGGTKLTVLG | – | – | – | – | 85 | 95 |
| 320-307 (antibody, human IgG1, name in Kabat numbering, V domains shown, human IgG1, lambda) VH: QVQLVQSGAEVKKPGASVKVSCKASGYTFTSYDINWVRQAPGQGLEWMGWLNPNSGNTGYAQKFQGRVTMTADRSTSTAYMELSSLRSEDTAVYYCAREVPETAAFEYWGQGTLVTVSS VL: QSVLTQPPSVSGAPGQRVTISCTSSSSDIGAGLGVLWYQQLPGTAPKLLIEGYYNRPSGVPDRFSGSKSGTSASLTITGLLPEDEGDYYCQSYDGTLSALFGGGTKLTVLG | 216 | 10 | 4 | 200 | – | – |
| 320-599 (antibody, human IgG1, name in Kabat numbering, V domains shown, full-length human IgG1, lambda) VH: QVQLVQSGAEVKKPGASVKVSCKASGYTFTSYDINWVRQAPGQGLEWMGWLNPNSGNTGYAQKFQGRVTMTADRSTSTAYMELSSLRSEDTAVYYCAREVPETAAFEYWGQGTLVTVSS VL: QSVLTQPPSVSGAPGQRVTISCTSSSSDIGAGSGVHWYQQLPGTAPKLLIEGYYNRPSGVPDRFSGSKSGTSASLTITGLLPEDEGDYYCQSFDGTLSALFGGGTKLTVLG | – | – | – | – | 103 | 113 |
| 320-600 (antibody, human IgG1, name in Kabat numbering, V domains shown, full-length human IgG1, lambda) VH: QVQLVQSGAEVKKPGASVKVSCKASGYTFTSYDINWVRQAPGQGLEWMGWLNPNSGNTGYAQKFQGRVTMTADRSTSTAYMELSSLRSEDTAVYYCAREVPETAAFEYWGQGTLVTVSS VL: QSVLTQPPSVSGAPGQRVTISCTSSSSDIGAALGVHWYQQLPGTAPKLLIEGYYNRPSGVPDRFSGSKSGTSASLTITGLLPEDEGDYYCQSFDGTLSALFGGGTKLTVLG | – | – | – | – | 104 | 111 |

The remaining lines, values ahead:

| TL1A Binding Level (Early) [1] [RU] | Antibody IC50, TL1A induced caspase potency assay in TF-1 cells [2] [ng/mL] | Fold improvement over 320-179, TL1A induced caspase potency assay in TF-1 cells [2] [fold] | TL1A Binding Level (Late) [3] [RU] | TL1A Binding Level (Late) [4] [RU] | TL1A Binding Level (Early) [5] [RU] | Binder |
| --- | --- | --- | --- | --- | --- | --- |
| – | – | – | – | 125 | 131 | 320-602 (antibody, human IgG1, name in Kabat numbering, V domains shown, full-length human IgG1, lambda) VH: QVQLVQSGAEVKKPGASVKVSCKASGYTFTSYDINWVRQAPGQGLEWMGWLNPNSGYTGYAQKFQGRVTMTADRSTSTAYMELSSLRSEDTAVYYCAREVPETAAFEYWGQGTLVTVSS VL: QSVLTQPPSVSGAPGQRVTISCTSSSSDIGAGQGVHWYQQLPGTAPKLLIEGYYNRPSGVPDRFSGSKSGTSASLTITGLLPEDEGDYYCQSFDGTLSALFGGGTKLTVLG |
| 389 | – | – | 374 | – | – | 320-278 (antibody, human IgG1, V domains shown, human IgG1, lambda) VH: QVQLVQSGAEVKKPGASVKVSCKASGYTFTSYDINWVRQAPGQGLEWMGWLNPNSGNTGYAQKFQGRVTMTADRSTSTAYMELSSLRSEDTAVYYCAREVPETAAFEYWGQGTLVTVSS VL: QSVLTQPPSVSGAPGQRVTISCTSSSSDIGAGQGVHWYQQLPGTAPKLLIEGYYNRPSGVPDRFSGSKSGTSASLTITGLLPEDEGDYYCQSYDGTLSALFGGGTKLTVLG |
| 95 | 5 | 4 | 77 | – | – | 320-297 (antibody, human IgG1, name in Kabat numbering, V domains shown, human IgG1, lambda) VH: QVQLVQSGAEVKKPGASVKVSCKASGYTFTSYDINWVRQAPGQGLEWMGWLNPNSGNTGYAQKFQGRVTMTADRSTSTAYMELSSLRSEDTAVYYCAREVPETAAFEYWGQGTLVTVSS VL: QSVLTQPPSVSGAPGQRVTISCTSSSSDIGAGLGHHWYQQLPGTAPKLLIEGYYNRPSGVPDRFSGSKSGTSASLTITGLLPEDEGDYYCQSYDGTLSALFGGGTKLTVLG |
| 228 | 6 | 3 | 211 | – | – | 320-280 (antibody, human IgG1, name in Kabat numbering, V domains shown, human IgG1, lambda) VH: QVQLVQSGAEVKKPGASVKVSCKASGYTFTSYDINWVRQAPGQGLEWMGWLNPNSGNTGYAQKFQGRVTMTADRSTSTAYMELSSLRSEDTAVYYCAREVPETAAFEYWGQGTLVTVSS VL: QSVLTQPPSVSGAPGQRVTISCTSSSSDIGAGHGVHWYQQLPGTAPKLLIEGYYNRPSGVPDRFSGSKSGTSASLTITGLLPEDEGDYYCQSYDGTLSALFGGGTKLTVLG |
| 99 | 10 | 2 | 74 | – | – | 320-302 (antibody, human IgG1, name in Kabat numbering, V domains shown, human IgG1, lambda) VH: QVQLVQSGAEVKKPGASVKVSCKASGYTFTSYDINWVRQAPGQGLEWMGWLNPNSGNTGYAQKFQGRVTMTADRSTSTAYMELSSLRSEDTAVYYCAREVPETAAFEYWGQGTLVTVSS VL: QSVLTQPPSVSGAPGQRVTISCTSSSSDIGAGLGVAWYQQLPGTAPKLLIEGYYNRPSGVPDRFSGSKSGTSASLTITGLLPEDEGDYYCQSYDGTLSALFGGGTKLTVLG |
| – | – | – | – | 118 | 126 | 320-603 (antibody, human IgG1, name in Kabat numbering, V domains shown, full-length human IgG1, lambda) VH: QVQLVQSGAEVKKPGASVKVSCKASGYTFTSYDINWVRQAPGQGLEWMGWLNPNSGYTGYAQKFQGRVTMTADRSTSTAYMELSSLRSEDTAVYYCAREVPETAAFEYWGQGTLVTVSS VL: QSVLTQPPSVSGAPGQRVTISCTSSSSDIGAGLGVLWYQQLPGTAPKLLIEGYYNRPSGVPDRFSGSKSGTSASLTITGLLPEDEGDYYCQSFDGTLSALFGGGTKLTVLG |
| – | – | – | – | 101 | 112 | 320-598 (antibody, human IgG1, name in Kabat numbering, V domains shown, full-length human IgG1, lambda) VH: QVQLVQSGAEVKKPGASVKVSCKASGYTFTSYDINWVRQAPGQGLEWMGWLNPNSGNTGYAQKFQGRVTMTADRSTSTAYMELSSLRSEDTAVYYCAREVPETAAFEYWGQGTLVTVSS VL: QSVLTQPPSVSGAPGQRVTISCTSSSSDIGAGLGVLWYQQLPGTAPKLLIEGYYNRPSGVPDRFSGSKSGTSASLTITGLLPEDEGDYYCQSFDGTLSALFGGGTKLTVLG |
| 387 | – | – | 361 | – | – | 320-277 (antibody, human IgG1, V domains shown, human IgG1, lambda) VH: QVQLVQSGAEVKKPGASVKVSCKASGYTFTSYDINWVRQAPGQGLEWMGWLNPNSGNTGYAQKFQGRVTMTADRSTSTAYMELSSLRSEDTAVYYCAREVPETAAFEYWGQGTLVTVSS VL: QSVLTQPPSVSGAPGQRVTISCTSSSSDIGAGSGVHWYQQLPGTAPKLLIEGYYNRPSGVPDRFSGSKSGTSASLTITGLLPEDEGDYYCQSYDGTLSALFGGGTKLTVLG |
